According to patent US20200385487A1 (PURDUE PHARMA L P, published 2020):

Tests used:
[1] = biological target: T1, recombinant soluble human tissue factor (hTF) (human, UniProt P13726 33-251); assay: SPR (Biacore X), soluble hTF immobilized on CM5 chip, antibody injected; global fit Langmuir 1:1
T1 construct: also called soluble hTF
Method: Binding properties of anti-hTF MAbs were evaluated using a Biacore X (Biacore Inc., Uppsala, Sweden). Briefly, a CM5 Biacore biosensor chip was docked into the instrument and activated with 55 μL of 1:1 NHS/EDC reagent (Biacore Inc.) at room temperature. The recombinant soluble hTF and BSA (10 μg/mL in 0.05 M acetate buffer, pH 4.5) were immobilized on the activated chip in flow cells 1 and 2, respectively. Immobilization was carried out at a flow rate of 5 μL/min until a resonance response of 1000-2000 RU was achieved. The chip was then blocked by injection of 55 μL of ethanolamine-HCl, pH 8.5, followed by five washes with 50 mM NaOH, 1 M NaCl.
To measure the binding of anti-hTF MAbs to the soluble hTF immobilized to the chip, 30 μL of anti-hTF MAbs at varying concentrations in Biacore running buffer (HBS-EP, Biacore Inc.) were injected over the sensor surface at a flow rate of 5 μL/min. Following completion of the injection phase, dissociation was monitored in BIAcore running buffer at the same flow rate for 360 sec. The surface was regenerated between injections using 30 μL of 50 mM NaOH-1 M NaCl. Individual sensorgrams were analyzed using […] software. Results for the Biacore/SPR binding analyses are shown in FIGS. 11A and 11B and Table 7.

[2] = biological target: T2, Recombinant Human Coagulation Factor III (tissue factor), R&D Systems (human, UniProt P13726 33-251); assay: ELISA: 100 ng/well Recombinant Human Coagulation Factor III coated on plate, antibody titrated 1000 to 0.97 ng/ml, goat anti-human Fc-HRP, TMB, OD at 450 nm
T2 construct: Bought reagent
Method: The binding of humanized variants of TF antibody B278, including B278-LC7HC4, LC7HC5, LC7HC6, LC8HC4, LC8HC5, and LC8HC6 variants, to recombinant human coagulation factor III (tissue factor) was assessed by ELISA analysis. The chimeric antibody B278-LC0HC0 was used as a control. In brief, 100 ng/well of Recombinant Human Coagulation Factor III (R&D Systems, UK) was immobilized onto 96 well Maxisorp plates in coating buffer (0.5 mM NaHCO₃ brought to pH 9.5 by the addition of 0.5 mM Na₂CO₃) overnight at 4° C. Coating buffer was removed and the plates were washed once in PBS Tween (PBS-T) (0.05% (v/v) Tween 20). 200 μl per well of 3.0% (w/v) semi skim milk in PBS was added and the plates were agitated for 2 hours at room temperature. Plates were washed three times with PBS-T.
Purified humanized variants of the TF antibody B278 (LC7HC4; LC7HC5; LC7HC6; LC8HC4; LC8HC5; LC8HC6) were serially diluted from 1,000 ng/ml to 0.97 ng/ml in incubation buffer (PBS, 1% (w/v) BSA), and 100 μl added per well.
Following agitation for two hours at room temperature, the plate was washed three times with PBS-T. 100 μl/well of goat anti-human HRP (Fc specific) (Sigma, UK) (1:60,000 PBS) was added and plates incubated for one hour with agitation at room temperature. The plates were washed three times with PBS-T and once in PBS. 100 μl/well of 3,3′,5,5′-Tetramethylbenzidine (TMB) substrate solution was added and incubated at 37° C. for 10 minutes. 50 μl of 1M HCl were added per well and the plates immediately read at 450 nm on a Tecan Sunrise plate reader.

Binder	EC50 (read off the curve) [2] [µg/mL]	binding result [2]	also measured
chimeric antibody B278-LC0HC0 (antibody, V domains shown, also called Ab LC0HC0 (chimeric B278); chimeric B278 control antibody) VH: EVQLQQSGAELMKPGASVKISCKATGYTFSSYWIEWVKQRPGHGLEWIGEILPGSASTKYNEKFKGKATFTADTSSNTAYMQLSSLTSEDSAVYYCARDYYYGSSYGFAYWGQGTLVTVSS VL: QAVVTQESALTTSPGETVTLTCRSSTGAVTTSNYANWVQEKPDHLFTGLIGGTNNRGPGVPARFSGSLIGDKAALTITGAQTEDEAVYFCALWYSNHWVFGGGTKLTVLG	~0.04	–	Kd [1]: 24.9 nM; koff [1]: 0.0011 s⁻¹; kon [1]: 43000 M⁻¹ s⁻¹
humanized tissue factor antibody B278-LC7HC6 variant (antibody, human IgG1, lambda, V domains shown, Full-length humanized antibody; Expressed transiently in CHO cells; also called Ab LC7HC6; PS-F09-2016-012) VH: EVQLQQSGAEVMKPGASVKISCKASGYTFSSYWIEWVKQAPGQGLEWIGEILPGSASTKYNEKFKGRVTFTADTSTNTAYMELSSLRSEDTAVYYCARDYYYGSSYGFAYWGQGTLVTVSS VL: QAVVTQEPSLTVSPGGTVTLTCRSSTGAVTTSNYANWVQQKPGQLPKGLISGTNNRGPWTTARFSGSILGDKAVLTLWGAHTEDEAVYYCALWYSNHWVFGGGTKLTVLG	–	–	Kd [1]: 25.3 nM; koff [1]: 0.0007 s⁻¹; kon [1]: 28000 M⁻¹ s⁻¹
LC7HC5 (antibody, V domains shown, Humanized B278 variant, expressed transiently in CHO cells; also called B278-LC7HC5; B278-LC7HC5 variant) VH: QVQLQESGAEVKKPGASVKVSCKASGYTFSSYWIEWVRQAPGQGLEWMGEILPGSASTKYNEKFKGRVTMTADTSTNTVYMELSSLRSEDTAVYYCARDYYYGSSYGFAYWGQGTLVTVSS VL: QAVVTQEPSLTVSPGGTVTLTCRSSTGAVTTSNYANWVQQKPGQLPKGLISGTNNRGPWTTARFSGSILGDKAVLTLWGAHTEDEAVYYCALWYSNHWVFGGGTKLTVLG	~0.05	–	–
LC8HC5 (antibody, V domains shown, Humanized B278 variant, expressed transiently in CHO cells; also called B278-LC8HC5; B278-LC8HC5 variant) VH: QVQLQESGAEVKKPGASVKVSCKASGYTFSSYWIEWVRQAPGQGLEWMGEILPGSASTKYNEKFKGRVTMTADTSTNTVYMELSSLRSEDTAVYYCARDYYYGSSYGFAYWGQGTLVTVSS VL: QSALIQPPSVSGSPGQSVTISCRSSTGAVTTSNYANWVQQHPGTVPKPMIYGTNNRGPGVPDRFSGSKSGNTASMTISGLQAEDEADYFCALWYSNHWVFGGGTKLTVLG	–	no binding (tested: 1000 ng/ml)	–
LC8HC6 (antibody, V domains shown, Humanized B278 variant, expressed transiently in CHO cells; also called B278-LC8HC6; B278-LC8HC6 variant) VH: EVQLQQSGAEVMKPGASVKISCKASGYTFSSYWIEWVKQAPGQGLEWIGEILPGSASTKYNEKFKGRVTFTADTSTNTAYMELSSLRSEDTAVYYCARDYYYGSSYGFAYWGQGTLVTVSS VL: QSALIQPPSVSGSPGQSVTISCRSSTGAVTTSNYANWVQQHPGTVPKPMIYGTNNRGPGVPDRFSGSKSGNTASMTISGLQAEDEADYFCALWYSNHWVFGGGTKLTVLG	–	no binding (tested: 1000 ng/ml)	–
LC8HC4 (antibody, V domains shown, Humanized B278 variant, expressed transiently in CHO cells; also called B278-LC8HC4; B278-LC8HC4 variant) VH: QVQLQESGAEVKKPGASVKVSCKASGYTFSSYWIEWVRQAPGQGLEWMGEILPGSASTKYNEKFKGRVTMTRDTSTSTVYMELSSLRSEDTAVYYCARDYYYGSSYGFAYWGQGTLVTVSS VL: QSALIQPPSVSGSPGQSVTISCRSSTGAVTTSNYANWVQQHPGTVPKPMIYGTNNRGPGVPDRFSGSKSGNTASMTISGLQAEDEADYFCALWYSNHWVFGGGTKLTVLG	–	no binding (tested: 1000 ng/ml)	–
LC7HC4 (antibody, V domains shown, Humanized B278 variant, expressed transiently in CHO cells; also called B278-LC7HC4; B278-LC7HC4 variant) VH: QVQLQESGAEVKKPGASVKVSCKASGYTFSSYWIEWVRQAPGQGLEWMGEILPGSASTKYNEKFKGRVTMTRDTSTSTVYMELSSLRSEDTAVYYCARDYYYGSSYGFAYWGQGTLVTVSS VL: QAVVTQEPSLTVSPGGTVTLTCRSSTGAVTTSNYANWVQQKPGQLPKGLISGTNNRGPWTTARFSGSILGDKAVLTLWGAHTEDEAVYYCALWYSNHWVFGGGTKLTVLG	~0.06	–	–
